Assay results: paper PMC6971430, “Manipulation of the dually thermoresponsive behavior of peptide‐based vesicles through modification of collagen‐like peptide domains” (Bioengineering & Translational Medicine, 2019)
Non-standard residues stand in square brackets, D forms with d. No end group written: not given here. *: point of attachment. Butanoyl(4-N3) = [N-]=[N+]=NCCCC(=O)*; Hyp = O=C(O)[C@@H]1C[C@@H](O)CN1; Pra = C#CC[C@H](N)C(=O)O

B1: N3-(GPO)3GFOGER(GPO)3GG (peptide)
peptide: {Butanoyl(4-N3)}-GP[Hyp]GP[Hyp]GP[Hyp]GF[Hyp]GERGP[Hyp]GP[Hyp]GP[Hyp]GG
notes: collagen-like peptide, printed in short form as N3-(GPO)3GFOGER(GPO)3GG and written out here; Forms a homotrimeric triple helix; details are in Supporting Information Section 1.1; also called CLP; source: synthetic peptide (Fmoc solid phase synthesis), purified by RP-HPLC
B2: (VPGFG)6-(GPO)3GFOGER(GPO)3GG (peptide)
chain: H-VPGFGVPGFGVPGFGVPGFGVPGFGVPGFG[Pra]GP[Hyp]GP[Hyp]GP[Hyp]GF[Hyp]GERGP[Hyp]GP[Hyp]GP[Hyp]GG
modifications: triazole (positions not given here); not fully specified (residue 31, bridges); also: no peptide bond between residues 31 and 32, the two parts are joined by azide-alkyne cycloaddition
notes: elastin-like peptide NH2-(VPGFG)6G', written out here; the last G stands for G' (propargylglycine); collagen-like peptide (GPO)3GFOGER(GPO)3GG as in m2; the printed O (hydroxyproline) is written as P; Two synthetic peptides joined through a triazole, written as one chain; Reaction details are in Supporting Information Section 1.2; also called F6-GFOGER; ELP-CLP conjugate; source: synthetic …

Experiments:
[1] = biological target: the molecule itself; test: circular dichroism spectroscopy; free CLP peptides, 0.35 mM in HPLC grade water (pH 6.5 at 4°C), 0.2 cm cuvette; wavelength scans at 4 and 80°C and melting scans; monomers to triple helix
[2] = biological target: the molecule itself; test: circular dichroism spectroscopy; ELP-CLP conjugates, wavelength scans at 0.1 mM and melting scans at 0.35 mM in HPLC grade water (pH 6.5 at 4°C), 0.2 cm cuvette; monomers to triple helix

Row | Protein | stoichiometry N [1] | stoichiometry N [2]
1 | B1 | 3 | 
2 | B2 |  | 3
